Key:
MKK6, P52564 = target: T1, MKK6, P52564
T1 chain: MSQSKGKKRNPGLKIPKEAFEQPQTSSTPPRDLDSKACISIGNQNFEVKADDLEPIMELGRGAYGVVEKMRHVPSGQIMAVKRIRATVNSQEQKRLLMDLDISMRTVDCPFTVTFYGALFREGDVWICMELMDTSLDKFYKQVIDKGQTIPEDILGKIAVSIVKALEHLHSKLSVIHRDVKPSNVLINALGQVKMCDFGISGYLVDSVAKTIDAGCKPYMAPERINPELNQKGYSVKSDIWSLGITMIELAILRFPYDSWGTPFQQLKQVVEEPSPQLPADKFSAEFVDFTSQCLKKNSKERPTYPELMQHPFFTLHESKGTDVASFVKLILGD

MEK2, P36507 = target: T2, MEK2, P36507
T2 chain: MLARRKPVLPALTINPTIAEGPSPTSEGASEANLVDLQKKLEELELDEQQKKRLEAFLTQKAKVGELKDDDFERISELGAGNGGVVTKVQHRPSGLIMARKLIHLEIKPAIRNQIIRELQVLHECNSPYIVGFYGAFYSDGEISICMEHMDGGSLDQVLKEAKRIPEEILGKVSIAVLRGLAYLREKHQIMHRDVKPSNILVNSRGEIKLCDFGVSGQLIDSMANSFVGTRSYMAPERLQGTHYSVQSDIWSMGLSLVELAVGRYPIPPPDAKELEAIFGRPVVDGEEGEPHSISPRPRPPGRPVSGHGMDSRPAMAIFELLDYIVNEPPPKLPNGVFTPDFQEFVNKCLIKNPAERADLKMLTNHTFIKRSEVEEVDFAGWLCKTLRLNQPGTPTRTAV

MKK4, P45985 = target: T3, MKK4, P45985
T3 chain: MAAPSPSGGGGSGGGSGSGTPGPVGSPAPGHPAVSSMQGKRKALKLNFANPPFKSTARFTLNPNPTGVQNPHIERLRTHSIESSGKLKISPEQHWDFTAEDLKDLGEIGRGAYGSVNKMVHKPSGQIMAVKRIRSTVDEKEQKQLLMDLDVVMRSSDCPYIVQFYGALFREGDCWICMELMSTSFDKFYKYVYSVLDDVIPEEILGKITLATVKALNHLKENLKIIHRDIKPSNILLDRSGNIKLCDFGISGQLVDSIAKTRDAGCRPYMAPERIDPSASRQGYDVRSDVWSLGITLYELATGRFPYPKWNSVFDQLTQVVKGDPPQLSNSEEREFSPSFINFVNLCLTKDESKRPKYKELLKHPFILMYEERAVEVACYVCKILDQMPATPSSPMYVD

B1: FLAG-tagged RC Kinase polypeptide (human RC Kinase variant 1, SEQ ID NO: 7, with a FLAG epitope at its amino terminal) (protein)
chain: SKKQQLLDILMSSMPKPERHAESLLDICHDTNSSPTDLMTVTKNQNIILQSISRSEEFDQDGDCSHSTLVNEEEDPSGGRQDWQPRTEEFSTSHMKYSGRSIKFLLPPLSLLPTRSGVLTIPQNHKFPKEKERNIPSLTSFVPKLSVSVRQSDELSPSNEPPGALVKSLMDPTLRSSDGFIWSRNMCSFPKTNHHRQCLEKEENWKSKEIEECNKIEITHFEKGQSLVSFENLKEGNIPAVREEDIDCHGSKTRKPEEENSQYLSSRKNESSVAKNYEQDPEIVCTIPSKFQETQHSEITPSQDEEMRNNKAASKRVSLHKNEAMEPNNILEECTVLKSLSSVVFDDPIDKLPEGCSSMETNIKISIAERAKPEMSRMVPLIHITFPVDGSPKEPVIAKPSLQTRKGTIHNNHSVNIPVHQENDKHKMNSHRSKLDSKTKTSKKTPQNFVISTEGPIKPTMHKTSIKTQIFPALGLVDPRPWQLPRFQKKMPQIAKKQSTHRTQKPKKQSFPCICKNPGTQKSCVPLSVQPTEPRLNYLDLKYSDMFKEINSTANGPGIYEMFGTPVYCHVRETERDENTYYREICSAPSGRRITNKCRSSHSERKSNIRTRLSQKKTHMKCPKTSFGIKQEHKVLISKEKSSKAVHSNLHDIENGDGISEPDWQIKSSGNEFLSSKDEIHPMNLAQTPEQSMKQNEFPPVSDLSIVEEVSMEESTGDRDISNNQILTTSLRDLQELEELHHQIPFIPSEDSWAVPSEKNSNKYVQQEKQNTASLSKVNASRILTNDLEFDSVSDHSKTLTNFSFQAKQESASSQTYQYWVHYLDHDSLANKSITYQMFGKTLSGTNSISQEIMDSVNNEELTDELLGCLAAELLALDEKDNNSCQKMANETDPENLNLVLRWRGSTPKEMGRETTKVKIQRHSSGLRIYDREEKFLISNEKKIFSENSLKSEEPILWTKGEILGKGAYGTVYCGLTSQGQLIAVKQVALDTSNKLAAEKEYRKLQEEVDLLKALKHVNIVAYLGTCLQENTVSIFMEFVPGGSISSIINRFGPLPEMVFCKYTKQILQGVAYLHENCVVHRDIKGNNVMLMPTGIIKLIDFGCARRLAWAGLNGTHSDMLKSMHGTPYWMAPEVINESGYGRKSDIWSIGCTVFEMATGKPPLASMDRMAAMFYIGAHRGLMPPLPDHFSENAADFVRMCLTRDQHERPSALQLLKHSFLERSH
- RC Kinase activity (in vitro kinase assay with labelled ATP, SDS-PAGE, autoradiography) (MKK6, P52564): it has the ability to phosphorylate other RC Kinase polypeptides, MKK4, and MKK6
- phosphorylating activity (in vitro kinase assay, autoradiography after SDS-PAGE) (MKK6, P52564): showed only minor activity against MKK6
- phosphorylating activity (in vitro kinase assay, autoradiography after SDS-PAGE) (MEK2, P36507): no detectable activity against MEK2
- RC Kinase activity (in vitro kinase assay with labelled ATP, SDS-PAGE, autoradiography) (MKK4, P45985): it has the ability to phosphorylate other RC Kinase polypeptides, MKK4, and MKK6
- phosphorylating activity (in vitro kinase assay, autoradiography after SDS-PAGE) (MKK4, P45985): RC Kinase was able to phosphorylate itself and MKK4
- RC Kinase activity (in vitro kinase assay with labelled ATP, SDS-PAGE, autoradiography): it has the ability to phosphorylate other RC Kinase polypeptides
- phosphorylating activity (in vitro kinase assay, autoradiography after SDS-PAGE): RC Kinase was able to phosphorylate itself

Source: patent publication US20080261903
